Test results taken from patent publication US20240067722A1.

B1: huLAG-3 specific VHH 3150 (VHH)
VHH: QVQLQESGGGLVQAGGSLRLSCAASGITFDDYAIGWFRQAPGKEREGVSCIRSSDDSTYYADSVKGRFTISSDNAKNTVYLQMNSLKPEDTAVYYCARDVYSDCKGPYDSWGRGTQVTVSS
B2: huLAG-3 specific VHH 3185 (VHH)
VHH: QVQLQESGGGLVQPGGSLKLSCAASGFTWDYSAIGWFRQAPGKEREGVSCITSSGKDTQYLDSVKGRFTISRDNTKNTVYLQMNNLKPEDTAVYYCAAPGRVRGSCNGRWDYWGQGTQVTVSS

Key:
[1] = target: human LAG-3 expressed on cells (human) (UniProt P18627)
[2] = target: Recombinant human LAG-3 protein (Fc Chimera), R&D 2319-L3 (human) (UniProt P18627); test: flow cytometry competition, huLAG-3-Fc on HLA-DR expressing cells, VHH at 500 nM

Binder	GFP expression by 2D3 cells (measure of TCR signaling) [1] [fold]	percent block of the LAG-3/HLA-DR interaction [2] [%]
B1	2	75
B2		75
